T1: amphyphisin SH3 (AMPH_HUMAN), P49418
T1 chain: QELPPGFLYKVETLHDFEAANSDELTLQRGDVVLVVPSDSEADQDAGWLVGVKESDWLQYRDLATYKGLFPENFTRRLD


Tests used:
[1] = target: T1, amphyphisin SH3 (AMPH_HUMAN), P49418; assay: SPOT array
[2] = target: endophilin SH3 (SH3G2_HUMAN), Q99962; assay: SPOT array

Row | Binder | normalised SPOT signal, Boehringer light units (BLU); mean over the file's lines of this peptide [1] | normalised SPOT signal, Boehringer light units (BLU); mean over the file's lines of this peptide [2]
1 | LRPVPGKPPGVDPL [Q04727 335-349] | 66.4 | 32.5
2 | LRPVPRRPSTWSRR [Q9NWJ0 49-62] | 2420 | 4830
3 | LRQPLRRPFRPNGL [Q16753 167-180] | 1690 | 489
4 | LRRHPSRPMRQSRR [Q9NYU0 896-909] | 3450 | 412
5 | LRRLLKRPELEEIF [Q96FL6 71-84] | 35.9 | 59.1
6 | LRWGFSRPRKDKGL [Q9P2P9 1564-1577] | 259 | 102
7 | LSADPERPGRFRLE [Q9H0F6 46-59] | 37.1 | 121
8 | LSDFPKKPPQPELG [Q96QH2 325-339] | 64.9 | 95.7
9 | LSERPPRPPPPPPP [Q96Q04 431-445] | 341 | 944
10 | APRAPRRPRSPPSS [P27815 35-48] | 92.3 | 257
11 | LSFHPKRPWILTSL [P53621 15-28] | 23.4 | 121
12 | LSGGLKRPSTRTPN [Q9BQL3 78-91] | 22.4 | 27
13 | LSKWLKRPGALEKQ [Q96S42 159-172] | 21.1 | 67.5
14 | LSLLLKRPWDPAVG [Q9NWE5 158-171] | 30 | 38.6
15 | LSNSLTRPQKLSPV [O60673 804-817] | 120 | 106
16 | LSPRPEKPPEEPGQ [O14687 279-293] | 46.1 | 39.8
17 | LSQPPRRPWGNLTA [P22105 891-904] | 60.8 | 154
18 | LSSPLRRPWDQAQH [Q9P2W0 105-118] | 100 | 280
19 | LTSGPARPWKSVAL [Q01113 359-372] | 142 | 428
20 | LTHVLSRPRRGSSG [Q9H6B9 44-57] | 2960 | 170
21 | APRRPRRPRRPGPS [Q96QG0 341-354] | 2420 | 1500

Row | Binder | normalised SPOT signal, Boehringer light units (BLU); mean over the file's lines of this peptide [1] | normalised SPOT signal, Boehringer light units (BLU); mean over the file's lines of this peptide [2]
22 | LTIELRRPENEFWV [Q9NVH6 359-372] | 60 | 52.4
23 | LTKVFFRPGKFAEF [Q9UM54 753-766] | 132 | 199
24 | LTLKPIRPRKYPNR [Q06889 251-264] | 482 | 102
25 | LTLLFKRPFGTSDP [P09172 129-142] | 41 | 44.1
26 | LTLNIRRPSPFDAG [Q14324 1104-1117] | 8.1 | 159
27 | LTPVPSKPPVTPAT [Q03112 565-579] | 55.4 | 37
28 | LTSFLRRPFQSPTS [Q04637 602-615] | 70.3 | 1560
29 | LTSGLRRPFGVAVM [Q14185 317-330] | 35.6 | 43
30 | LTVAIRRPPDLGGP [Q96NX2 418-431] | 23.5 | 17.9
31 | LTVAIRRPTDDSNQ [Q9Y2E4 454-467] | 29.3 | 158
32 | APRYLGRPKKEKTI [Q9C0B5 292-305] | 7.1 | 69.5
33 | LTVTLQRPTKELHG [Q9Y2K7 133-146] | 94.9 | 192
34 | LTWLPPKPPTAFDG [Q16827 346-360] | 24 | 71.7
35 | LVIRLPRPPKVLRL [Q9HC66 56-69] | 1960 | 2110
36 | LVIRLRRPPLRSPR [Q9H8Y6 68-81] | 90.6 | 12900
37 | LVIRLRRPPLRYPR [Q9HAJ1 68-81] | 387 | 6210
38 | LVIRPPRPPKVLGL [P39189 565-579] | 12400 | 20800
39 | LVIRPPRPPKVLRL [Q9H3C0 95-109] | 14800 | 19500
40 | LVLEFLRPDRQGVT [Q14997 962-975] | 732 | 49.7
41 | LVNGFLRPLRMAAS [Q9UK56 265-278] | 4910 | 176
42 | LVNNFLRPLRMAAS [Q13972 262-275] | 12100 | 1250

From publication PMC314469, “Protein Interaction Networks by Proteome Peptide Scanning” (PLoS Biology, 2004)
